B1: S-E6 trimer (T4F) (other)
heavy: QVTLRESGPGLVKPSETLSLTCAVSGGSLSSVNYYWSWIRQHPGKGLEWIGYIYYSGSTNYNPSLKSRVTMSLDTSKNQFSLKLSSVTAADTAVYYCATPGAIMGALHIWGQGTLVTVSSASTKGPSVFPLAPSSKSTSGGTAALGCLVKDYFPEPVTVSWNSGALTSGVHTFPAVLQSSGLYSLSSVVTVPSSSLGTQTYICNVNHKPSNTKVDKKVEPPKSGGGGSGGGGSGGGGSPGSGYIPEAPRDGQAYVRKDGEWVLLSTFLGHHHHHH
light: QAVLTQPSSASSTPGQRVIISCSGSSSNIGSNTVSWYQQVPGAAPKLLIYFDYRRPSGVPDRFSGTRSGTSASLGISGLQSEDEADYYCAAWDDSLSAWVFGRGTKLTVLGGLGGLVDYKGQPKAAPSVTLFPPSSEELQANKATLVCLISDFYPGAVTVAWKADSSPVKAGVETTTPSKQSNNKYAASSYLSLTPEQWKSHRSYSCQVTHEGSTVEKTVAPTECS
notes: also called trimer S-E6; trimeric S-E6
B2: S-B8 trimer (other)
heavy: QVQLVQSGGGLIQPGGSLRLSCAASGFTVSLSHMNWVRQAPGKGLEWVSITYGDGNSDYADSVKGRFTISRDNSKNTLYLQMNSLRAEDTAVYYCAREYYYGMDVWGQGTTVTVSSASTKGPSVFPLAPSSKSTSGGTAALGCLVKDYFPEPVTVSWNSGALTSGVHTFPAVLQSSGLYSLSSVVTVPSSSLGTQTYICNVNHKPSNTKVDKKVEPPKSGGGGSGGGGSGGGGSPGSGYIPEAPRDGQAYVRKDGEWVLLSTFLGHHHHHH
light: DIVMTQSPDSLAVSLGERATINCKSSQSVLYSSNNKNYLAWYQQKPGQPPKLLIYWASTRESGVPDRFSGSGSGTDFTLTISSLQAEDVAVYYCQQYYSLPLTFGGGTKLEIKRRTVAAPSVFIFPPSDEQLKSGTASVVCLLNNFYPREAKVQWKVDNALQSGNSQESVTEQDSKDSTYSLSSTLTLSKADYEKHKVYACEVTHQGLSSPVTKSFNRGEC
B3: S-B8 (antibody, V domains shown)
VH: QVQLVQSGGGLIQPGGSLRLSCAASGFTVSLSHMNWVRQAPGKGLEWVSITYGDGNSDYADSVKGRFTISRDNSKNTLYLQMNSLRAEDTAVYYCAREYYYGMDVWGQGTTVTVSS
VL: not shown
notes: also called S-B8 dimer
B4: S-D4 (antibody, V domains shown)
VH: QVQLQESGGGVVQPGRSLRLSCEVSGFTFSDYGMHWVRQAPGKGLEWVAVIWSEGSTEYYADSVKGRFTISRDNSKDTLYLQMNSLRAEDTAVYYCARPGYPTSTDRSPAAAGARQYYYYGMDVWGQGTTVTVSS
VL: NFMLTQPHSVSESPGKTVTISCTRSGGSGAANYVQWYQQRPGSSPTTLIYEDSRRPPGVPDRFSGSVDTSSNSASLTISGLQTEDEADYYCQSYDSSNHVVFGGGTKLTVLG
notes: also called S-D4 dimer; S-D4 IgG4
B5: S-E6 (antibody, V domains shown)
VH: QVTLRESGPGLVKPSETLSLTCAVSGGSLSSVNYYWSWIRQHPGKGLEWIGYIYYSGSTNYNPSLKSRVTMSLDTSKNQFSLKLSSVTAADTAVYYCATPGAIMGALHIWGQGTLVTVSS
VL: QAVLTQPSSASSTPGQRVIISCSGSSSNIGSNTVSWYQQVPGAAPKLLIYFDYRRPSGVPDRFSGTRSGTSASLGISGLQSEDEADYYCAAWDDSLSAWVFGRGTKLTVLG
notes: also called S-E6 dimer; dimer S-E6

Columns and labels:
[1] = biological target: SARS-CoV-2 B.1.617.2 pseudovirus spike (SARS-CoV-2); test: cell-based or functional assay
B.1.351 S-RBD [2] = biological target: T1, B.1.351 S-RBD (SARS-CoV-2, UniProt P0DTC2 319-541); test: BLI (Octet RED96), biotin B.1.351 S-RBD on SA sensor, 1:1 fit
T1 construct: also called spike RBD of B.1.351 (Beta Strain)

B.1.351 S-RBD [3] = biological target: T1, B.1.351 S-RBD; test: BLI (Octet RED96), biotinylated B.1.351 S-RBD on SA biosensor, 1:1 binding model
[4] = biological target: SARS-CoV-2 K417N+E484K+N501Y+D614G mutant pseudovirus spike (spikeΔ19) (SARS-CoV-2, UniProt P0DTC2 14-1254); test: cell-based or functional assay
[5] = biological target: SARS-CoV-2 N501Y+D614G mutant pseudovirus spike (spikeΔ19) (SARS-CoV-2, UniProt P0DTC2 14-1254); test: cell-based or functional assay
[6] = biological target: wild-type SARS-CoV-2 pseudovirus spike (spikeΔ19) (SARS-CoV-2, UniProt P0DTC2 14-1254); test: cell-based or functional assay

Row | Binder | NT50 (B.1.617.2) (nM), pseudovirus neutralization [1] [nM] | Kd (B.1.351 S-RBD [2]) [nM] | Kd (B.1.351 S-RBD [3]) [nM] | NT50 (B.1.351) (nM), pseudovirus neutralization [4] [nM] | NT50, N501Y+D614G spike pseudovirus neutralization [5] [nM] | NT50, wild-type SARS-CoV-2 pseudovirus neutralization [6] [nM]
1 | B1 | 0.007 | 0.58 | 0.576 |  |  | 
2 | B2 | 0.15 |  |  | 0.35 |  | 
3 | B3 | 0.37 |  |  | 1.2 | 0.53 | 
4 | B4 | 0.24 |  |  | 0.66 | 0.042 | 0.48
5 | B5 | 0.065 |  |  | 0.32 | 0.021 | 0.025
